Data on 22 sequences can be found in the DeepSol protein solubility set.

The series can be described thus: soluble on expression in E. coli; label from the status in PepcDB or PDB records.
Take “MMKGSKSYTEYSSSFSTDEFGYDQNRSNSYNFNGPCINTDPEMKRKKRVASYNLFATEEKLKSTLKNSFKWIKNKFSGDDNSIRYNV”: the “soluble on expression in E. coli” value is “not soluble”. With “MSDTLLLTVLLRHDQSKNLDEIQARMKAMDWWERFPGEGVEIVSWTVAMGLGQIVTLRLPPALLPRVNVELERSAWGVFRTECYPTYDFVPVRETIRERVRTGGQ”, the “soluble on expression in E. coli” value is given as “not soluble”. In the case of “MSLNIQAIDTRHGTANQHSFSNGNCLPYTGVPFGMNFYAPQTTDQKGSWWFHPEDRTFQGYRVTHQPSPWMGDFSHLLMTPVSGSLSELSLFHAQSSYRPEESLFSPVEINLTQLRYQITSQLIPSMYGGILTIDYQQKDNHLLLTLPGRYQVKQLDDHQVAVKVINYSGCEDPDFSFYFVLHFEQPLTKWFAPSSGEDGKILLSFGNIAQQVVHFSSSFISEKQAQLNLAREISLRSTEMLQQGIADWHNYFDRLKVTHENPEHTKTFYHTLYRTFLFPQTFYELDENQQPIHYDTFSQTVRPGVLYTNNGFWDTYKTVYPLFSLIAQEKYEEMLEGFLNSYNETGFLPKWLSPDERGLMPGTLIDAVIADAAVKKIRPDLMPQFLEAMKKGATQQSERENYGRQGTLDYLKYGYVPSTYHESVNHTLDYAYSDFCISQVAKTLNDSETATFYRQQALNYQQLFNPETGFMQAKDTEGNFRPDFLDIRWGKDYAEGSAWQSSFAVYQDFAGLIKLYGSELAFEKKLIQLCNQAPNFNVEGYGFEIHEMSEMAAIDFGQLAISNQPSFHYPFLFSYIGKPEMAQPLLKQLMQTFDASPTGYPGDEDNGSMSAWYIFNSLGFYPVTPGTGEYVIGMPLVQTAEVKLSNGKQLTIQTSPNKVQQQFIHEIQLNQEKHTAPYFTHQELLNGGTLDYQLGIVPNPQNTAERPFSLSTEKEGGSHHHHHH”, the “soluble on expression in E. coli” value is given as “soluble”.

Turning to “MGHHHHHHSHGGCRELRSTKYISDGQCTSISPLKELVCAGECLLLPVLPNWIGGGYGTKYWSRRSSQEWRCVNDKTRTQRIQLQCQDGSTRTYKITVVTACKCKRYTRQHNESSHNFESMSPAKPVQHHRERKRASKSSKHSMS”, the “soluble on expression in E. coli” value is reported as “not soluble”. For “MDDNNSEFKHLFPIAVEVTEGKTYVWCGCGKSKTQPFCDKENCGDKAVSFIAELTEDVYFCNCKQTKNPPFCDGSHAKILLEVVKKKAKQMNRKGSLKLEHHHHHH”, the “soluble on expression in E. coli” value is reported as “not soluble”.

In the case of “MGHHHHHHSHMANSAGSMANSAGSMHLVVESFPSYRDVTLFEGKRVSFYKRAQILVADTWSVLEGKGDGCFKDISSITMFADYRLPQVLAHLGALKYSDDLLKKLLKGEMLSYGDRQEVEIRGCSLWCVELIRDCLLELIEQKGEKPNGEINSILLDYYLWDYAHDHREDMKGIPFHRIRCIYY”, the “soluble on expression in E. coli” value is recorded as “not soluble”. Consider “AIAASSTDQNLMDLSDKDTREKLSFWDRRVDPMAPLTDRQTDSILELRAAAEETLLPAELPIEDICSLSSRSLRSSFTAALPESTEEVLLQGFQMLELHNHRIETAQQFFSWFSKLQVQMDQDEASKYRKTRDVLNGYQEQCDAILNDVNTALDHLDSLQKQYLFVSTKTGTLHEACEQLLKEQSELVDLAESIQEKLSYFNELENINTKLNSPTLSVNSEGFVPMLSKLDECIEYVSSHPNFKDYPVYLTKFKQCLSKAMQLIKSHTVNTLQNLTGQLSKRDPLGAPSA”, for which the “soluble on expression in E. coli” value is given as “not soluble”.

Take “MGSDKIHHHHHHMKGLYIGAAGMMNYMQHIQVHSNNVANAQTPGFKFDQLTSEVISRNKVNYQNGPVARQVGTIDYGVRPAATHINLTAGSSYITNRDRDFFMQDTDPTQGSNFFITAKNGEISLSRGGQFHSDQFGFLRTADGANLLSATGEAIQVGQKTSIRSEANGDLYNAETGQYLGRLGTKFVSANQADSLVKDGEGRLHVNGINTMNLPAGQGIIQNGVIETSNVDLGVEMVQLMDNQRMVQASKNVVNMFDKVYDKEATGLIRQ”: the “soluble on expression in E. coli” value was “not soluble”.

In the case of “MSALKWTNIGATSGAKSCQRWLFYAYDRIRRTVVPHVFGERTLATLERLLSLLSAFEVVVWMTDGWPLYESRLKGKLHVISKRYTQRIERHNLNLRQHLARLGRKLLSFSKSVELHDKVIGHYLNIKHYQLEHHHHHH”, the “soluble on expression in E. coli” value was “not soluble”. The entry for “MYIELRTSLEMFRSDLVDLEALANASRDALDQLPFVPKGPKMDDDEAHPNPDPESALRSGRLDSLVCATASAAQSALVTCVKLIDWAYEYEPDDEDDDDNDIVPMDDIDDDDEGGGSSGANGGGSNGSGRSGPPDNGDASAAPSVTADELANARPSRGGIALDLPPKPAPVA” is “not soluble”; for “MNDPADTLRATLADLVDGLPPRQAARAVERLIANYRGDTPTDAPILRDRADVVAYAAYRMPATFAAVRSALTAFAEAVPDWVPGSHLDVGGGTGAATWAVSDTWGGTRPVTVLDWAEPALVLGQEIAASLPALREARWRRSRIGAALDIESVELVTVSYVLNELTGSDRAALVDAAAGAARAVVIVEAGTPAGYARVVEARDRLIAAGFRVAAPCPHSAACPIEAGTDWCHFAARVSRSSLHRQVKSGSLAYEDEKFSYVAATRLPVEPAASRVVRRPQIRKGQVLLDLCASDERLRRSTVTKRHGDLYKAARDAAWGDPWPPGEDLEHHHHHH” it is “soluble”; for “TTSLRAYRLGEHGQVLEQRALSAGIMQLPTTPRLISGQLCSDGFELAFDQACGDWLDAEPGLPVIACGMVGSAQGWREAAYRETPASVNQLSAALQTVRSQRGVTVHIIPGVLQRSTLPNVMRGEETQVLGVLAGLETQLDNQPLLIGLPGSHSKWVQVTRGRIVHFDTFMTGEVYAALCAHTILGRTMQPAEAFDDQAFDRGLSIALSDTGSAGPLSTIFSTRTLGLTGQLAASAQPDYLSGLLFGHELGAIARLHLHTHEQLPAVILIGSEALCARYSRGLTVCGFPQVTLAEQATERGLWQVAVQAGLIAR” it is “not soluble”. As to “MLVNKVEICGVNTSKLPVLTNEQKKELFERMHKGDTSAREEFIKGNLRLVLSVIQRFNNRGEYVDDLFQVGCIGLIKAIDNFDVTQNVKFSTYAVPMIIGEIRRYLRDNNAIRVSRSLRDIAYKALQAKEKLTNQNSKEPTIEEIAKELGLPKEEVVFALDAIQDPISLFESVYHDGGDAIYVMDQVKDEKNNDENWLEGIALSEAMRKLNDREKLILNLRFFDGRTQMEVAEEIGISQAQVSRLEKTALMHMRKYI”, the “soluble on expression in E. coli” value was “not soluble”. “VQEPLRVPPSAPARLVVLASGTGSLLRSLLDAAVGDYPARVVAVGVDRECRAAEIAAEASVPVFTVRLADHPSRDAWDVAITAATAAHEPDLVVSAGFMRILGPQFLSRFYGRTLNTHPALLPAFPGTHGVADALAYGVKVTGATVHLVDAGTDTGPILAQQPVPVLDGDDEETLHERIKVTERRLLVAAVAALATHGVTVVGRTATMGRKVTIG”: the “soluble on expression in E. coli” value is “soluble”. The same measure for “MNNNHYTYRVLWSQEDEEYVGLCAEFPSLSWLDAQAEKALKGIMDLVSEVVEDMQHNGEEVPVPLSHGKYSGKFQLRIPPELHRKLAIQAAENGVSLNRYISSKL”: “not soluble”; for “MAHHHHHHMLFYITPFPHSEVMRVEEQHQLFLAAKEAQLVRNEATQIILSDASHHSALHGAFVRVLVELPDQSDSYIIARVGAVTTGEPYDGFSHNTSTRTDKYLVLVLPHSLASINGTQYQLNSISNSPMTEDEFNLWLSTMQEPGSVPACAYRGVVEDTDAHLYLESSKIPSRQELLAIGGRIHALGSAASQNSRNPNSRRRRSNNGSSEQSLQQPEWMPKEQQMAIPRISSGNGATLGSIAGMQDYSAFMANPTGGAGPQNGANFNHTNSDPLPSTAGVTEGTNEPSLFVEPTTPRPASATEQELDLPSRHQIRQDILNKLNHRSVVFPQNIDELKLSQLRLVERDMIEYLEHVRDVLSSKQENCVVCLDHVPTVISLPCRHKVLCRLCASAVSTCPVCRSHLFELFEPKEI”: “not soluble”; for “MTNKQVEISMAEWDVMNIIWDKKSVSANEIVVEIQKYKEVSDKTIRTLITRLYKKEIIKRYKSENIYFYSSNIKEDDIKMKTAKTFLNKLYGGDMKSLVLNFAKNEELNNKEIEELRDILNDISKK”: “soluble”. Regarding “MLRCCSALMCPTAVPSRVSPVAAAAAADIAGSSESTVSLVADVDKKNSQYKQIFLERFRKKLQSDKTGMNNLESFVELPEGVAPSAASIGPIKRGSEPLPPWIKLKVPKGMTHRPRFNRIRRSMREKNLSTVCEEAKCPNIGECWGGSDEEGTATATIMVMGSHCTRGCRFCSVLTSRRPPPLDPEEPEKVAAAVHEMGVDYIVMTMVDRDDLPDGGASHVCCCIHTIKKKNPELMLEALVGDFHGDLKLVEQLAVTPLSVYAHNIECVERITPRVRDRRASYRQSLQTLEHVTKWTNGNMLTKSSIMLGLGEEEAEVRQTLRDLRTAGVSAVTLGQYLQPSHTRLKVSRYAHPKEFEMWEKEAMDMGFLYCASGPMVRSSYRAGEYYIKNILKQRQSAEGGKAAAAATAVNAGTAIA”, the “soluble on expression in E. coli” value was “not soluble”. As for “MGSDKIHHHHHHMSFMDQIPGGGNYPKLPVECLPNFPIQPSLTFRGRNDSHKLKNFISEIMLNMSMISWPNDASRIVYCRRHLLNPAAQWANDFVQEQGILEITFDTFIQGLYQHFYKPPDINKIFNAITQLSEAKLGIERLNQRFRKIWDRMPPDFMTEKAAIMTYTRLLTKETYNIVRMHKPETLKDAMEEAYQTTALTERFFPGFELDADGDTIIGATTHLQEEYDSDYDSEDNLTQNGYVHTVRTRRSYNKPMSNHRNRRNNNPSREECIKNRLCFYCKKEGHRLNECRARKASSNRS”, the “soluble on expression in E. coli” value is listed as “not soluble”. “MGSDKIHHHHHHMHLDNEADHHSENKAEAPGIQPAVTRNVADISPQIAQCAVEWLVELQAADHDEATHEAFQRWLAAHPDHKLAWQHIETVNTRFNGLTSPLGSAVAKAVLTPRRSLKRRQIIKTLVVILFAGSTGWWADEKIPWRAWTADERTHIGQRRNITLADGSRVVLNTDTAINIRFTANERRLQLVRGEILVTTNQDSASIVRPFIVEIAQSELRPLGTRFTIHQQTTSNRLSVFEGAVEIRLRQDINYRHIVQAGEQVDFSNQGIHEIHPADDTSTAWSNGMIIASSMRLADFLAELDRHRPGKLNCDPAVADLRVSGTYPLTDPEDILDALQTTLPVKIQYFTRYWVTVRPAS”: the “soluble on expression in E. coli” value is listed as “not soluble”. On to “MSLLREKAVPIRIPDQLPASDVLRNENIFVMSESRASTQEIRPLKVLLLNLMPKKIETETQFLRLLSNSPLQVDIELLRIDDRPSKNTPEEHLNTFYRQFELVKNRNFDGLIITGAPLGLVQFEDVAYWQHLQNIMAWAKAHVTSTLYICWAAQAGLKLLYNLPKRTREEKLSGVYYHDIHKPFHPLLRGFDDRFLAPHSRYADFDAEFLAEHTDLDILATSDVAGVYLAATKDKRNVFVTGHPEYDAYTLHGEYVRDLGEGLNPAIPVNYYPNDNPDNKPCASWRSHGHLLFANWLNYCVYQQTPYDLEKFSEANFTKDEEGHHHHHH”, for which the “soluble on expression in E. coli” value was “soluble”. On to “MSLWYNRAMKHFDTIVIGGGPAGMMATISSSFYGQKTLLIEKNRKLGKKLAGTGGGRCNVTNNGSLDNLLAGIPGNGRFLYSVFSQFDNHDIINFFTENGVKLKVEDHGRVFPASDKSRTIIEALEKKITELGGQVATQIEIVSVKKVDDQFVLKSADQTFTCEKLIVTTGGKSYPSTGSTGFGHEIARHFKHTITDLEAAESPLLTDFPHKALQGISLDDVTLSYGKHVITHDLLFTHFGLSGPAALRMSSFVKGGEVLSLDVLPQLSEKDLVTFLEENREKSLKNALKTLLPERLAEFFVQGYPEKVKQLTEKEREQLVQSIKELKIPVTGKMSLAKSFVTKGGVSLKEINPKTLESKLVPGLHFAGEVMDINAHTGGFNITSALCTGWVAGSLHYDEGHHHHHH”, for which the “soluble on expression in E. coli” value is recorded as “soluble”.
